Target: T1, Trx-RhopH3-C (P. falciparum RhopH3 amino acids 620-897 with Trx and His tags) (Plasmodium falciparum, UniProt Q8I395 620-897)
T1 sequence: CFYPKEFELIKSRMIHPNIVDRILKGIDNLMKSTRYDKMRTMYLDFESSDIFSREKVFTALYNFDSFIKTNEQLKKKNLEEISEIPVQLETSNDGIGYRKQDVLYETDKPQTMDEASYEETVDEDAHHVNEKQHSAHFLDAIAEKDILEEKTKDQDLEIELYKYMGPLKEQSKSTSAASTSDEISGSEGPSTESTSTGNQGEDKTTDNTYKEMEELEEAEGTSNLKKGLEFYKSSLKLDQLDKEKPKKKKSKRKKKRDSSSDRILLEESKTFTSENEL
Assay: ELISA

B1: GST-5ABC (5ABC region of human erythrocyte band 3, amino acids 720-761, as GST fusion protein) (domain or fragment, UniProt P02730 720-761, looked up)
chain: GMPWLSATTVRSVTHANALTVMGKASTPGAAAQIQEVKEQRI
  Kd: 183 ± 0.111 nM
